Read-outs that look alike come from different tables or passages of the source.
B1: 4A5.37 (antibody, V domains shown)
VH: VKLEESGGGFVKPGGSLKISCAASGFTFRNYAMSWVRLSPEMRLEWVATISSAGGYIFYSDSVQGRFTISRDNAKNTLHLQMGSLRSGDTAMYYCARQGFGNYGDYYAMDYWGQGTTVTVSS
VL: DIELTQSPSSLAVSAGEKVTMSCKSSQSLLNSRTRKNQLAWYQQKTGQSPELLIYWASTRQSGVPDRFTGSGSGTDFTLTISSVQAEDLAVYYCQQSYNLLTFGPGTKLEIKR
B2: 4H11.2.5 (antibody, V domains shown)
VH: VKLQESGGGFVKPGGSLKVSCAASGFTFSSYAMSWVRLSPEMRLEWVATISSAGGYIFYSDSVQGRFTISRDNAKNTLHLQMGSLRSGDTAMYYCARQGFGNYGDYYAMDYWGQGTTVTVSS
VL: DIELTQSPSSLAVSAGEKVTMSCKSSQSLLNSRTRKNQLAWYQQKPGQSPELLIYWASTRQSGVPDRFTGSGSGTDFTLTISSVQAEDLAVYYCQQSYNLLTFGPGTKLEVKR

How the values were obtained:
[1] = biological target: Homo sapiens MUC16 (GenBank NP-078966)
[2] = biological target: Homo sapiens MUC16 (GenBank NP-078966); remark: listed apart in the source

Binder | Kd [1] | Kd [2]
B1 | 7.3 nM | –
B2 | – | 6.8 nM

— patent publication US20130171152A1 (published 2013)
